Reference: patent US20200385730, “Aptamers Against Clostridium Difficile” (Biovector, Inc., published 2020)

Columns and labels:
CotE (rCotE N281-F712) = CotE (rCotE N281-F712) (Clostridium difficile); assay: SPR; conditions: tags: C-terminal His
Method: (§1) For CotE D2, CotE H2 and CotEC chitinase, aptamers were spotted on a gold surface at a concentration of 5 μM in PBS at a volume of approximately 10 nL in triplicate. Negative aptamers of the same length as the positive aptamers were spotted in the same manner, also in triplicate. Protein was then injected over the chip at a volume of 200 μL, with a flow rate of 50 μL/min in a Horiba (OpenPlex) surface plasmon resonance imaging (SPRi) instrument. Resonance due to binding was obtained by subtracting total resonance on the negative sequences from total resonance on the positive sequences. Disassociation values were computed with the following equation: dx/dt˜−kd*x, wherein dx/dt is the derivative of resonance values as a function of time and x is the resonance value for any given time point. Association values were computed with the following equation: dx/dt˜ka*c*Rmax−(ka*c+kd)*x, where x is the resonance due to binding at specific time points, c is the concentration of injectant, and Rmax is the maximum resonance observed.
(§2) For aptamer CdeC D1 (SEQ ID No 6), the KD was not determined due to protein aggregation.

CdeM = CdeM (Clostridium difficile); assay: BLI; conditions: tags: His
[1] = target: T1, CotEC chitinase (rCotEC P381-F712) (Clostridium difficile); assay: BLI; conditions: tags: C-terminal His
CotA [2] = target: T2, CotA (Clostridium difficile, UniProt Q186G8 SEQ:1-305); assay: SPR; CotA immobilized on hydrogel chip by EDC, aptamer injected; conditions: tags: His6
T2 sequence: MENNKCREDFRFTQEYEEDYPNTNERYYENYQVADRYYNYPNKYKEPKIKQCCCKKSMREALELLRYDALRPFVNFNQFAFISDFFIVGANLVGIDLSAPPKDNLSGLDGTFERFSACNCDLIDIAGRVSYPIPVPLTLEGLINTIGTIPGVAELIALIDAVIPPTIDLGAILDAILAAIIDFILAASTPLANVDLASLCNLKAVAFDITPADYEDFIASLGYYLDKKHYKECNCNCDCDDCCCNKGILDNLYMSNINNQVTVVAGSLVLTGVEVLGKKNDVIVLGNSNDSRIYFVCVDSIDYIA
Method: For CotA C1, the protein was immobilized on a hydrogel chip with EDC-mediated conjugation between primary amines on the protein (side chains on residues) and carboxylic acid groups on the surface of the chip. A protein of similar size was immobilized in the same manner as a negative control. […] For CdeC D1, the protein was received as aggregated, insoluble balls of protein. The binding assay was performed by incubating fluorescently labeled aptamers (FAM) with the protein, and then spinning the tubes down in a microcentrifuge to remove unbound. The pellet was resuspended in selection buffer and spun down again. Bound aptamers were eluted by adding 6 M urea, and spinning again, retaining the supernatant. The aptamers were cleaned up with PCR cleanup columns and the fluorescence was read on a Tecan Sapphire II fluorometer. Excitation was at 497 nm, and emission was at 515 nm. The amount of fluorescence measured in the eluant was divided by the total amount of fluorescence of all fractions.
as §2

[3] = target: T1, CotEC chitinase (rCotEC P381-F712); assay: SPR; conditions: tags: C-terminal His
Method: as §1, §2

CotA [4] = target: T2, CotA; assay: BLI; slower association, little dissociation; conditions: tags: His6
Method: The refined pools (characterized in FIGS. 21-25) were taken forwards for monoclonal isolation. All aptamers were purified (after elution) and resuspended and stored in water. Before use in selections or binding assays, aptamers were diluted in a final concentration 1× buffer. Individual aptamer clones were isolated and screened by BLI using aptamer concentrations of 0.5 μM, 1 μM, or 2 μM. Again, the target was immobilized onto a Biolayer Interferometry sensor probe and then incubated with each aptamer clone. The results are presented below (FIGS. 26-30).

B1: CotE_D2 (ssDNA)
DNA: CCAGTGTAGACTACTCAATGCTCGACATTTCCGCCCCGACGGCCCTCCTAGTGATGGGGAGAGTACTATCCACAGGTCAACC
Binder B1 has a Kd (CotE (rCotE N281-F712)) greater than 250 nM.

B2: CdeM_E2 (ssDNA)
DNA: CCAGTGTAGACTACTCAATGCCTTCCATTCACCTACCGAGCTAAGCGTTCGACTTAGGTCTGTACTATCCACAGGTCAACC
B2: binds (CdeM).

B3: Chitinase_D10 (ssDNA)
DNA: CCAGTGTAGACTACTCAATGCCCTATTAGCTGTATCGATCCGTTTAGTCGCTCCTCCGATAGTACTATCCACAGGTCAACC
B3: binds [1].

B4: Chitinase_H11 (ssDNA)
DNA: CCAGTGTAGACTACTCAATGCCTTGTAAGAAGAACAATCGCCGCTTCGCCTGAATAGGTTCGTACTATCCACAGGTCAACC
B4: binds [1].

B5: CotA_C1 (ssDNA)
DNA: CCAGTGTAGACTACTCAATGCCGTGGACTGGTCGGGTTTGGATTCGGCAGATGAATCACTAGTACTATCCACAGGTCAACC
B5 was tested, and the Kd (CotA [2]) was 6.87 nM.

B6: Chitinase_D11 (ssDNA)
DNA: CCAGTGTAGACTACTCAATGCCTGGTAAATCGATGACCGCTGCCTCGCCTGAGTAATCATCGTACTATCCACAGGTCAACC
Binder B6 has a Kd [3] of 254 nM.

B7: CotA_B1 (ssDNA)
DNA: CCAGTGTAGACTACTCAATGCTTAAGTTCTGGGGACACGTGATGAACGCATTTAATGGGGCGTACTATCCACAGGTCAACC
B7: binds (CotA [4]).
